T1: Tea2-Alexa647 (S. pombe, UniProt Q1MTQ1 1-628, Alexa Fluor 647 (NHS ester labelling, sites not stated))
T1 construct: Tea2 (kinesin-7 homologue), Schizosaccharomyces pombe, full length; also called Tea2-647; source: bacterially expressed, purified (Talon resin, eluted with 3C protease, SEC), labelled with Alexa Fluor 647 NHS ester; not shown: Z-tag, N-terminal, cleaved
T1 sequence (looked up): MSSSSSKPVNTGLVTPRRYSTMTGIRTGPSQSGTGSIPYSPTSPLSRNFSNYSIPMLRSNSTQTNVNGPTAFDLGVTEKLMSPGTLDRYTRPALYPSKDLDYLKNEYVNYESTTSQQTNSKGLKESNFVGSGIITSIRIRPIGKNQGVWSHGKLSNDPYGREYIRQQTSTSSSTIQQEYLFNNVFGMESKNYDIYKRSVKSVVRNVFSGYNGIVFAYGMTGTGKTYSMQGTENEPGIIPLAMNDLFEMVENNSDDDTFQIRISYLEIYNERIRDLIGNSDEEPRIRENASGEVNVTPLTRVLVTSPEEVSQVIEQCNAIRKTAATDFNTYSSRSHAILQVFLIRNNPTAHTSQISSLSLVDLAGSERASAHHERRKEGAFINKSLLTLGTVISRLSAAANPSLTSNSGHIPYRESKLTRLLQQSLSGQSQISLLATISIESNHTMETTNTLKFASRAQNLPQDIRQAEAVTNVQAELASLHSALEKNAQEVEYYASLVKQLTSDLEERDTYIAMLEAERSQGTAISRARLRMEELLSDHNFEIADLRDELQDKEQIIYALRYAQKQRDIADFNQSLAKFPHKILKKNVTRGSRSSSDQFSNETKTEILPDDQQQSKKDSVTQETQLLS

T2: Full-length S. pombe Mal3, unlabelled (S. pombe, UniProt Q10113 1-308)
T2 construct: Mal3 (EB homologue), Schizosaccharomyces pombe, full length; Scaffold (200 nM) in the scaffold-client assay; also the Mal3 of the cryo-ET samples; also called FL-Mal3; FLMal3; source: E. coli ER2566, purified (Talon resin, eluted with 3C protease, SEC); not shown: His8, N-terminal, cleaved
T2 sequence (looked up): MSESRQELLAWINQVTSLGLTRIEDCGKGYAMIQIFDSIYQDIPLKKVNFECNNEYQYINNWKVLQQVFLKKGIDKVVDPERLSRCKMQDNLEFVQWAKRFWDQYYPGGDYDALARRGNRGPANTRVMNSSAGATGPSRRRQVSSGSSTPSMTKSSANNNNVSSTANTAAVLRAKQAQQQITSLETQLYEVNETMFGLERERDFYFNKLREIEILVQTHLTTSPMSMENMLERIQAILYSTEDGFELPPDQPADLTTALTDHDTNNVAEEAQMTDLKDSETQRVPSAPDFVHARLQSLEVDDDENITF


Tests used:
Conditions in all cases: both partners purified
Tea2-Alexa647 [1] = molecular target: T1, Tea2-Alexa647; test: scaffold-client recruitment into condensates (spinning disc confocal microscopy); scaffold condensates of 200 nM FL Mal3, 215 nM Tip1 (each tagged with 2 nM FL Mal3:mCherry) or Tea2-Alexa647, with 2 nM Mal3:GFP construct as client; 1x MRB80, 50 mM KCl, 10% PEG6k, 2 mM ATP, 1 mM GTP, 2 mM dithiothreitol, 0.5 mM β-mercaptoethanol; imaged about 30 min after mixing
[2] = molecular target: T2, Full-length S. pombe Mal3, unlabelled; test: as above
Tea2-Alexa647 [3] = molecular target: T1, Tea2-Alexa647; test: TIRF microscopy of purified fluorescent proteins on microtubules; plus-end-tracking reconstitution without PEG: 200 nM Mal3 or Mal3 construct, 20 nM Tea2, 150 nM Tip1 together on dynamic microtubules grown from surface-bound GMPCPP seeds; MRB80, 50 mM KCl, 14.5 µM tubulin, 0.5 µM rhodamine tubulin, 1 mM GTP, 2 mM ATP, 0.1% methylcellulose

binding result (Tea2-Alexa647 [1])	binding result [2]	binding result (Tea2-Alexa647 [3])	Binder
binds	binds	–	Full-length Mal3:GFP (natural protein, S. pombe, UniProt Q10113 1-308, looked up, Mal3 (EB homologue), Schizosaccharomyces pombe, full length; source: E. coli ER2566, purified (Talon resin, eluted with 3C protease, SEC); not shown: His8, N-terminal, cleaved) MSESRQELLAWINQVTSLGLTRIEDCGKGYAMIQIFDSIYQDIPLKKVNFECNNEYQYINNWKVLQQVFLKKGIDKVVDPERLSRCKMQDNLEFVQWAKRFWDQYYPGGDYDALARRGNRGPANTRVMNSSAGATGPSRRRQVSSGSSTPSMTKSSANNNNVSSTANTAAVLRAKQAQQQITSLETQLYEVNETMFGLERERDFYFNKLREIEILVQTHLTTSPMSMENMLERIQAILYSTEDGFELPPDQPADLTTALTDHDTNNVAEEAQMTDLKDSETQRVPSAPDFVHARLQSLEVDDDENITF
–	–	binds	Mal3-Alexa488 (natural protein, S. pombe, UniProt Q10113 1-308, looked up, Alexa Fluor 488 (TFP ester labelling, sites not stated), Mal3 (EB homologue), Schizosaccharomyces pombe, full length; source: E. coli ER2566, purified (Talon resin, eluted with 3C protease, SEC), labelled with Alexa Fluor 488 TFP ester; not shown: His8, N-terminal, cleaved) MSESRQELLAWINQVTSLGLTRIEDCGKGYAMIQIFDSIYQDIPLKKVNFECNNEYQYINNWKVLQQVFLKKGIDKVVDPERLSRCKMQDNLEFVQWAKRFWDQYYPGGDYDALARRGNRGPANTRVMNSSAGATGPSRRRQVSSGSSTPSMTKSSANNNNVSSTANTAAVLRAKQAQQQITSLETQLYEVNETMFGLERERDFYFNKLREIEILVQTHLTTSPMSMENMLERIQAILYSTEDGFELPPDQPADLTTALTDHDTNNVAEEAQMTDLKDSETQRVPSAPDFVHARLQSLEVDDDENITF
